Test results: patent US20230183351A1 (AVENCELL EUROPE, published 2023)

Target: T1, PD-L1 on PD-L1-positive target cell lines DU-145 and U-251 (human, UniProt Q9NZQ7 19-290)
T1 construct: also called Programmed death ligand 1; CD274
Test: flow cytometry on DU-145 and U-251 cells, shown as % binding of max over time at 4 C or 37 C
Protocol: Data is shown as % binding of max by normalizing the obtained MFI to the highest MFI measured. […] Data is shown as mean ± SD of one experiment measured in technical triplicates.
Subsequently, stained target cells were incubated for indicated time points at either 4° C. or 37° C. Binding of PD-L1-specific TMs was analyzed via flow cytometry using an PE-labeled α-His Ab.

T1 sequence (Q9NZQ7 19-290): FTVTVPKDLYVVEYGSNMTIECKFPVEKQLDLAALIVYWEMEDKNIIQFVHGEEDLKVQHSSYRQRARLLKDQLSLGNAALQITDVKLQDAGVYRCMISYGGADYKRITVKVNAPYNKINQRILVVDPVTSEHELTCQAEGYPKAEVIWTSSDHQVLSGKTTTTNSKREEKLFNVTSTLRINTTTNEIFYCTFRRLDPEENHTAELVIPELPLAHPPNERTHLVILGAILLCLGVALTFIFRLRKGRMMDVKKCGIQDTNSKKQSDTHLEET

B1: TM-PD-L1-scFv5 (scFv)
scFv: GQVQLVQSGAEVKKPGASVKVSCKASGYTFTDYGFSWVRQAPGQGLEWMGWITAYNGNTNYAQKLQGRVTMTTDTSTSTVYMELRSLRSDDTAVYYCARDYFYGMDVWGQGTTVTVSSGGGGSGGGGSGGGGSEIVLTQSPATLSLSPGERATLSCRASQSVSSYLVWYQQKPGQAPRLLIYDASNRATGIPARFSGSGSGTDFTLTISSLEPEDFAVYYCQQRSNWPRTFGQGTKVEIKAAAKPLPEVTDEYARGGPGGGGSHHHHHHHH
notes: also called TMPD-L1v5
B1: binds.
